Results reported in doi:10.1101/2021.06.15.448513.

Molecular target: PaPlaB, phospholipase B of Pseudomonas aeruginosa PA01 (gene pa2927) (P. aeruginosa PA01)
Assay: SEC-MALS

Substance “PaPlaB, phospholipase B of Pseudomonas aeruginosa PA01 (gene pa2927) (enzyme)” has a stoichiometry N of 7.
